Legend:
Chk1 [1] = target: Chk1 (UniProt O14757); assay: biotin-peptide streptavidin pull-down, purified Chk1; conditions: reference: NC peptide with pT916 and pS945, untreated; sites T916,S945
Chk1 [2] = target: Chk1 (UniProt O14757); assay: biotin-peptide streptavidin pull-down from lysate; conditions: reference: NC peptide with pT916 and pS945, untreated; sites T916,S945

- binding against the reference (Chk1 [1]): lost
- binding against the reference (Chk1 [2]): lost
Substance: Claspin NC peptide, 901-955 (from UniProt Q9HAW4) NC peptide pretreated with λ-phosphatase
